Results reported in patent US12583915 (MEDPACTO, dated 2026).

How the values were obtained:
human BAG2 protein [1] = target: T1, human BAG2 protein (human, UniProt O95816 2-211); assay: Western blot on MDA-MB-231 cell lysate
T1 construct: also called BAG2 polypeptide; Bcl-2-associated athanogene 2

[2] = target: T2, GST-Bag Full (GST fusion of full-length human BAG2) (human, UniProt O95816 1-211); assay: immunoblot on lysate of HEK293T cells transfected with GST-Bag Full vector
T2 construct: Expressed in HEK293T cells, tested in cell lysate by immunoblot; band at about 50 kDa; also called GST-Bag Full vector product; full-length BAG2 polypeptide; not shown: GST tag from the pcDNA3.1+/GST vector, about 26 kDa
T2 sequence (O95816 whole entry, the tested form may be a part): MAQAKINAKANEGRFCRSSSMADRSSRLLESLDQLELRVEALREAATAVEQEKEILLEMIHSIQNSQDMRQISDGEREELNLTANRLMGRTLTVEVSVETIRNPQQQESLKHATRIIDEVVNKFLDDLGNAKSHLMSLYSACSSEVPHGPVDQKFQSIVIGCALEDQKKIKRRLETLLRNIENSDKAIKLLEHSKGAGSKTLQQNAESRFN
Description: Next, for domain mapping of the BAG2 antigen to which the ten antibodies identified in Section 1 above, cells, to which the GST-Empty vector (pcDNA3.1+/GST vector, NovoPro Bioscience Inc. China) having a molecular weight of about 26 kDa was introduced, was used as a negative control. GST-Bag Full vector, GST-Bag F1 vector, GST-Bag F2 vector, GST-Bag F3 vector, and GST-Bag F4 vector, each including polynucleotides encoding human BAG2 protein and polynucleotides encoding fragments of the BAG2 protein, were introduced into cells, and the cells with the vectors introduced thereinto were cultured to express the genes, and then, cell lysates were obtained. For cell lysates, immunoblotting was performed using each of the 10 antibodies. The polynucleotide encoding the human BAG2 protein has the nucleotide sequence of SEQ ID NO: 70. The GST-Bag F1, -Bag F2, -Bag F3, and -Bag F4 vectors consist of the nucleotide sequences of SEQ ID NOS: 71 to 74, respectively.
FIGS. 2A and 2B show the results of immunoblotting for the full-length BAG2 polypeptide of anti-BAG2 antibody or a fragment thereof. […] In detail, the immunoblotting was performed as follows: each of the vectors was introduced into HEK293T cells by lipofectamine transfection (Thermo Fisher Scientific, Inc., Waltham, MA, USA) method, and the obtained transformed cells were cultured at a temperature of 37° C. in DMEM (Welgene) medium containing 10% FBS, 100 U/ml penicillin and 100 µg/ml streptomycin for 30 hours, and then cells were isolated. The isolated cells were disrupted using the same method as described in connection with FIG. 1 and subjected to […] analysis on a 12% gel. For immunoblotting, after reacting for 1 hour with the same blocking solution as described in connection with FIG. 1, each of the 10 purified anti-BAG2 antibodies having a concentration of 2 mg/ml was used as a primary antibody at a dilution of 1/10000 dilution and bound to the cells. The goat anti-mouse HRP conjugate used as the secondary antibody was used at a 1/5000 dilution concentration, and Film-photosensing was carried out in the dark using EGL reagent (Amersham Pharmacia Biotech) as a substrate. Standard molecular marker sizes were expressed to confirm the size of BAG2.

Myc-tag BAG2 = target: T3, Myc-tag BAG2 (Homo sapiens (Human), UniProt O95816 1-211, limits assumed); assay: sandwich ELISA on lysate of MDA-MB-231 cells overexpressing Myc-tag BAG2 (OE) against empty vector cells (EV)
T3 construct: Expressed in MDA-MB-231 cells; 30 ug of lysate tested in the sandwich ELISA against cells with the Myc-tag empty vector (EV); not tied to this vector in so many words; also called BAG2 overexpressed from the Myc-tag BAG2 expression vector; OE; not shown: Myc tag
T3 sequence (O95816 whole entry): as the sequence (O95816 whole entry, the tested form may be a part) above

human BAG2 protein [3] = target: T1, human BAG2 protein; assay: selection of hybridoma clones by immunoblotting

T1 sequence (O95816 2-211 limits assumed): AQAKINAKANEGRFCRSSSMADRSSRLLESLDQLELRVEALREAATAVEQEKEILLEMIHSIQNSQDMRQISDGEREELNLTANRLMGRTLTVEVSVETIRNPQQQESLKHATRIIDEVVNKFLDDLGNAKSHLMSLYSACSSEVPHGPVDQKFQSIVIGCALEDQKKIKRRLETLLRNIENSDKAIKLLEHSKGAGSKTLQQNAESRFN

Binder | binding result (human BAG2 protein [1]) | binding result [2] | binding result (Myc-tag BAG2) | binding result (human BAG2 protein [3])
9B12 antibody (antibody, V domains shown, Mouse monoclonal antibody from a hybridoma; Capture antibody in the sandwich ELISA; also called anti-BAG2 antibody 9B12) VH: QVQLQQSGAELVRPGTSVKVSCKASGYAFTNYMIEWIKQRPGQGLEWIGVINPGSGGSYYNEKVKGKATLTADRSSSTAYMQFSSLTADDSGVYFCRIYGNYKGYFDHWGQGTTLTVSS VL: DIVMTQSPSSMYASLGERVTITCKASQDMNSYLSWFQQKPGKSPKTLIYRANRLVDGVPSRFSGSGSGQDYSLTISSLEYEDMGIYYCLQNDEFPFTFGSGTKLEMK | binds | binds | binds | 
9B3 antibody (antibody, V domains shown, Mouse monoclonal antibody from a hybridoma; also called anti-BAG2 antibody 9B3) VH: EVQLQQSGAELVRPGTSVKVSCKASGYAFTNYMIEWIKQRPGQGLEWIGVINPGSGGSYYNEKVKGKATLTADKSSSTAYMQFSSLTADDSAVYFCRIYGNYKGYFDYWGQGTTLTVSS VL: DIVMTQSPSSMYASLGERVTITCKASQDINSYLSWFQQKPGKSPKTLIYRANRLVDGVPSRFSGSGSGQDYSLTISSLEYEDMGIYYCLQNDEFPFTFGSGTKLEIK | binds | binds |  | 
3B10 antibody (antibody, V domains shown, Mouse monoclonal antibody from a hybridoma; also called anti-BAG2 antibody 3B10) VH: QVQLQQPGAELARPGTSVKVSCKASGHAFTNYMIEWIKQRPGQGLEWIGVINPGSGGTYYSEKVKGKATLTADRSSSTAYMQLSSLTADDSGVYFCRIYGNYKGYFDHWGQGTTLTVSS VL: DIVMTQSPSSMYASLGERVTITCKASQDMNSYLSWFQQKPGKSPKTLIYRSNRLVDGVPSRFSGSGSGQDYSLTISSLDYEDMGIYYCLQNDEFPFTFGSGTKLEIK | binds | binds |  | 
3F12 antibody (antibody, V domains shown, Mouse monoclonal antibody from a hybridoma; also called anti-BAG2 antibody 3F12) VH: QVQLQESGPDLVKPSQSLSLTCTVTGYSITSGYSWHWIRQFPGNKLEWMGYIYYRGSTNYNPSLKSRISITRDTSKNQFFLLLKSVTTEDTATYYCAREAYWGQGTLVTVSA VL: not shown |  | binds | binds | binds
3G8 antibody (antibody, V domains shown, Mouse monoclonal antibody from a hybridoma; also called 3 GB (as misprinted); anti-BAG2 antibody 3G8) VH: QIQLVQSGPELKKPGETVKISCKASGYSFTKYGMNWVKQAPGKDIKWMGWINTNTGEATYGEEVKGRFAFSLETSASTAYLQINNLKNEDTATYFCARLGLRYLDYWGQGTTLTVSS VL: DIVMTQSPASLVVSLGQRATISCRASKSVSTSDYSYMHWYQQKPGQPPKVLIYLASNLESGVPARFSGSGSGTDFTLNIHPVEEEDAATYYCQHNRELPPTFGAGTKLELK | binds | binds | binds | 
2A11 antibody (antibody, V domains shown, Mouse monoclonal antibody from a hybridoma; Capture antibody in the sandwich ELISA; also called anti-BAG2 antibody 2A11) VH: QVQLQQPGAELVRPGASVTLSCKASGYTFTDYEMHWVKQTPVHGLEWIGIIDPETGGTAYNQKFKGKATLTADKSSSTAYMELRSLTSEDSAVYYCTRGKFYYSGRDYAMDYWGQGTSVTVSS VL: DVLMTQTPLSLPVSLGDQASISCRSSQSIVHSNGNTYLEWYLQKPGQSPKLLIYKVSNRFSGVPDRFSGSGSGTDFTLKISRVEAEDLGVYFCFQGSQVPPTFGGGTKLEIK |  | binds | binds | binds
3B5 antibody (antibody, V domains shown, Mouse monoclonal antibody from a hybridoma; also called anti-BAG2 antibody 3B5) VH: EVQLQQSGPELVKPGASVKLSCKASGYSFTDYTFYWVRQSHGESLEWIGYIDPYNGGNTYNRKFKGKATLTVDKSSSTAFMHLNSLTSEDSAVYYCARGYYRYGGGGDFDYWGQGTTLTVSS VL: DVLMTQTPLSLPVSLGDQASISCRSSQSLVHSNGNTYLHWYLQKPGQSPKLLIHKVSNRFSGVPDRFSGSGSGTDFTLKISRVEAEDLGIYFCSQNTHIPPTFAGGTKLEIK | binds | binds |  | 
4C2 antibody (antibody, V domains shown, Mouse monoclonal antibody from a hybridoma; also called anti-BAG2 antibody 4C2) VH: QVQLQQPGAELVRPGASVTLSCKASGYTFTDYEMHWVKQTPVHGLEWIGIIDPETGATAYNQKFKGKATLTADKSSSTAYMELRSLTSEDSAVYYCTRGKFYYSGRDYAMDYWGQGTSVTVSS VL: DVLMTQTPLSLPVSLGDQASISCRSSQSIVHSNGNTYLEWYLQKPGQSPKLLFYKVSNRFSGVPDRFSGSGSGTDFTLKISRVEAEDLGVYFCFQGSQVPPTFGGGTKLEIK | binds | binds |  | 
8C4 antibody (antibody, V domains shown, Mouse monoclonal antibody from a hybridoma; also called 8G4 (as misprinted); anti-BAG2 antibody 8C4) VH: QVQLQQPGAELVRPGASVTLSCKASGYTFTDYEMHWVKQTPVHGLEWIGIIDPETAGTAYNQKFKGKATLTADKSSSTAYMELRSLTSEDSAVYYCTRGKFYYSGRDYAMDYWGQGTSVTVSS VL: DVLMTQTPLSLPVSLGDQASISCRSSQSIVHSNGNTYLEWYLQKPGQSPKLLFYKVSNRFSGVPDRFSGSGSGTDFTLKISRVEAEDLGVYFCFQGSQVPPTFGGGTKLEIK | binds | binds | binds | 
